Assay results as given in the supplement of paper PMC10567573.

B1: LYSMD4 (parent)
chain: LLQRELAQEDSLNKLALQYGCKVA

Variants of: B1
Assay: protein stability index of a GFP-peptide fusion (GPS, HEK-293T) (PSI 1-6); higher = more stable
Conditions: c terminus: a fixed tail appended
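Also: lentivirally expressed fusions sorted by FACS into six bins by GFP to DsRed ratio, PSI derived from sequencing read proportions per bin multiplied by bin number.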

First: LLQREMAQEDSLNKLALQYGCKVA [L6M]
Second: LLQRERAQEDSLNKLALQYGCKVA [L6R]
The protein stability index of the first is lower: 1.37 for the first, 1.61 for the second.

Compared with LLQREGAQEDSLNKLALQYGCKVA [L6G], LLQREAAQEDSLNKLALQYGCKVA [L6A] is higher in protein stability index: 1.95 for the first, 2.06 for the second.

Compared with LLQREDAQEDSLNKLALQYGCKVA [L6D], LLQRESAQEDSLNKLALQYGCKVA [L6S] is lower in protein stability index: 2.5 for the first, 1.67 for the second.

First: LLQREQAQEDSLNKLALQYGCKVA [L6Q]
Second: LLQRELAREDSLNKLALQYGCKVA [Q8R]
The protein stability index of the first is higher: 2.18 for the first, 1.47 for the second.

Going from LLQRELAYEDSLNKLALQYGCKVA [Q8Y] to LLQRELATEDSLNKLALQYGCKVA [Q8T], the protein stability index falls from 2.21 to 1.45.

Compared with LLQRELADEDSLNKLALQYGCKVA [Q8D], LLQRELAGEDSLNKLALQYGCKVA [Q8G] is lower in protein stability index: 4.68 for the first, 1.42 for the second.

Going from LLQRELAEEDSLNKLALQYGCKVA [Q8E] to LLQRELALEDSLNKLALQYGCKVA [Q8L], the protein stability index falls from 1.84 to 1.58.

Going from LLQRELAPEDSLNKLALQYGCKVA [Q8P] to LLQRELAQEDSLNKLSLQYGCKVA [A16S], the protein stability index rises from 1.48 to 1.98.

Compared with LLQRELAQEDSLNKLDLQYGCKVA [A16D], LLQRELAQEDSLNKLKLQYGCKVA [A16K] is lower in protein stability index: 3.12 for the first, 2.48 for the second.

First: LLQRELAQEDSLNKLILQYGCKVA [A16I]
Second: LLQRELAQEDSLNKLRLQYGCKVA [A16R]
The protein stability index of the first is higher: 2.66 for the first, 1.9 for the second.

Going from LLQRELAQEDSLNKLGLQYGCKVA [A16G] to LLQRELAQEDSLNKLQLQYGCKVA [A16Q], the protein stability index falls from 2.18 to 1.86.

First: LLQRELAQEDSLNYLALQYGCKVA [K14Y]
Second: LLQRELAQEDSLNDLALQYGCKVA [K14D]
The protein stability index of the first is lower: 2.06 for the first, 2.23 for the second.

Compared with LLQRELAQEDSLNWLALQYGCKVA [K14W], LLQRELAQEDSLNTLALQYGCKVA [K14T] is lower in protein stability index: 3.01 for the first, 1.66 for the second.

Compared with LLQRELAQEDSLNNLALQYGCKVA [K14N], LLQRELAQEDSLNFLALQYGCKVA [K14F] is higher in protein stability index: 1.86 for the first, 2.4 for the second.

Compared with LLQRELAQEDSLNHLALQYGCKVA [K14H], LLQRELAQKDSLNKLALQYGCKVA [E9K] is lower in protein stability index: 2.07 for the first, 1.35 for the second.

Compared with LLQRELAQGDSLNKLALQYGCKVA [E9G], LLQRELAQDDSLNKLALQYGCKVA [E9D] is higher in protein stability index: 1.28 for the first, 2.68 for the second.

Compared with LLQRELAQWDSLNKLALQYGCKVA [E9W], LLQRELAQQDSLNKLALQYGCKVA [E9Q] is higher in protein stability index: 1.02 for the first, 2.2 for the second.

Going from LLQRELAQCDSLNKLALQYGCKVA [E9C] to LLQRELAQEDCLNKLALQYGCKVA [S11C], the protein stability index rises from 1.53 to 1.79.

Going from LLQRELAQEDDLNKLALQYGCKVA [S11D] to LLQRELAQEDALNKLALQYGCKVA [S11A], the protein stability index falls from 1.88 to 1.76.

First: LLQRELAQEDGLNKLALQYGCKVA [S11G]
Second: LLQRELAQEDRLNKLALQYGCKVA [S11R]
The protein stability index of the first is lower: 2.25 for the first, 2.65 for the second.

First: LLQRELAQEDMLNKLALQYGCKVA [S11M]
Second: LLQRELAQEDHLNKLALQYGCKVA [S11H]
The protein stability index of the first is higher: 2.39 for the first, 2.01 for the second.

First: LLQGELAQEDSLNKLALQYGCKVA [R4G]
Second: LLQVELAQEDSLNKLALQYGCKVA [R4V]
The protein stability index of the first is lower: 1.24 for the first, 3.51 for the second.

Compared with LLQNELAQEDSLNKLALQYGCKVA [R4N], LLQSELAQEDSLNKLALQYGCKVA [R4S] is lower in protein stability index: 2.04 for the first, 1.25 for the second.

First: LLQKELAQEDSLNKLALQYGCKVA [R4K]
Second: LLQLELAQEDSLNKLALQYGCKVA [R4L]
The protein stability index of the first is higher: 2.82 for the first, 2.03 for the second.

Going from LLQAELAQEDSLNKLALQYGCKVA [R4A] to LLQRELAQEDSLNKLALQYGCKVD [A24D], the protein stability index rises from 1.64 to 2.37.

Going from LLQRELAQEDSLNKLALQYGCKVT [A24T] to LLQRELAQEDSLNKLALQYGCKVC [A24C], the protein stability index rises from 2.19 to 3.03.

First: LLQRELAQEDSLNKLALQYGCKVP [A24P]
Second: LLQRELAQEDSLNKLALQYGCKVW [A24W]
The protein stability index of the first is lower: 2.64 for the first, 4.48 for the second.

Going from LLQRELAQEDSLWKLALQYGCKVA [N13W] to LLQRELAQEDSLEKLALQYGCKVA [N13E], the protein stability index falls from 1.8 to 1.65.

Compared with LLQRELAQEDSLFKLALQYGCKVA [N13F], LLQRELAQEDSLQKLALQYGCKVA [N13Q] is lower in protein stability index: 1.65 for the first, 1.38 for the second.

Going from LLQRELAQEDSCNKLALQYGCKVA [L12C] to LLQRELAQEDSDNKLALQYGCKVA [L12D], the protein stability index rises from 1.72 to 4.13.

Compared with LLQRELAQEDSMNKLALQYGCKVA [L12M], LLQRELAQEDSTNKLALQYGCKVA [L12T] is higher in protein stability index: 1.97 for the first, 3.48 for the second.

Going from LLQRELAQEDSWNKLALQYGCKVA [L12W] to LLQRELAQEDSHNKLALQYGCKVA [L12H], the protein stability index rises from 1.23 to 3.65.

Going from LLQRELAQEDSANKLALQYGCKVA [L12A] to LLQRELAQEDSPNKLALQYGCKVA [L12P], the protein stability index rises from 2.5 to 3.54.

Compared with LLQRELAQEDSRNKLALQYGCKVA [L12R], LLQRELAQEISLNKLALQYGCKVA [D10I] is lower in protein stability index: 2.49 for the first, 1.04 for the second.

First: LLQRELAQEPSLNKLALQYGCKVA [D10P]
Second: LLQRELAQEQSLNKLALQYGCKVA [D10Q]
The protein stability index of the first is lower: 1.86 for the first, 2.67 for the second.

Going from LLQRELAQEFSLNKLALQYGCKVA [D10F] to LLQRELAQEESLNKLALQYGCKVA [D10E], the protein stability index rises from 1.46 to 1.83.

First: LLQRELAQEHSLNKLALQYGCKVA [D10H]
Second: LLQRELAQEYSLNKLALQYGCKVA [D10Y]
The protein stability index of the first is lower: 1.22 for the first, 1.82 for the second.

First: LLQRELAQELSLNKLALQYGCKVA [D10L]
Second: LLQRELAQERSLNKLALQYGCKVA [D10R]
The protein stability index of the first is higher: 2.1 for the first, 1.68 for the second.

Going from LLQRELAQETSLNKLALQYGCKVA [D10T] to LLQRELAQEDSLNKLALQYGCKAA [V23A], the protein stability index rises from 1.92 to 3.18.

First: LLQRELAQEDSLNKLALQYGCKWA [V23W]
Second: LLQRELAQEDSLNKLALQYGCKKA [V23K]
The protein stability index of the first is lower: 2.34 for the first, 2.92 for the second.

First: LLQRELAQEDSLNKLALQYGCKLA [V23L]
Second: LLQRELAQEDSLNKLALQYGCKPA [V23P]
The protein stability index of the first is lower: 2.04 for the first, 3.4 for the second.

Compared with LLQRELAQEDSLNKLALQYGCKCA [V23C], LLQRELAQEDSLNKLALQYGCKMA [V23M] is lower in protein stability index: 1.83 for the first, 1.75 for the second.

Compared with LLQRELQQEDSLNKLALQYGCKVA [A7Q], LLQRELMQEDSLNKLALQYGCKVA [A7M] is higher in protein stability index: 2.02 for the first, 2.77 for the second.

First: LLQRELCQEDSLNKLALQYGCKVA [A7C]
Second: LLQRELHQEDSLNKLALQYGCKVA [A7H]
The protein stability index of the first is lower: 1.73 for the first, 2.72 for the second.

First: LLQRELVQEDSLNKLALQYGCKVA [A7V]
Second: LLQRELDQEDSLNKLALQYGCKVA [A7D]
The protein stability index of the first is lower: 1.48 for the first, 2.09 for the second.

Compared with LLQRELIQEDSLNKLALQYGCKVA [A7I], LLQRELWQEDSLNKLALQYGCKVA [A7W] is lower in protein stability index: 2.63 for the first, 1.95 for the second.

Going from LLQRELFQEDSLNKLALQYGCKVA [A7F] to LLQRELYQEDSLNKLALQYGCKVA [A7Y], the protein stability index falls from 2.73 to 2.12.
